PMC10553838, “Functional and structural insights into the multi-step activation and catalytic mechanism of bacterial ExoY nucleotidyl cyclase toxins bound to actin-profilin” (PLOS Pathogens, 2023)

Experiments:
[1] = molecular target: Alexa-488-labelled G-actin-ATP (rabbit) (UniProt P68135); assay: AUC
[2] = molecular target: α-actin from rabbit skeletal muscle, monomeric (G-actin) (rabbit) (UniProt P68135); assay: pyrene-actin seeded elongation rates with profilin, fitted with G-actin sequestration by Vn-ExoY
[3] = molecular target: α-actin from rabbit skeletal muscle, monomeric (G-actin) (rabbit) (UniProt P68135); assay: pyrene-actin seeded elongation rates fitted to a G-actin sequestration model; initial barbed-end (spectrin-actin seeds) and pointed-end (gelsolin-actin seeds) growth rates, 1.5 μM G-actin-ATP-Mg, increasing Vn-ExoY^DM; 28 mM KCl, 2 mM MgCl2, 10 mM Tris-HCl pH 7.5, 2 mM ATP, 1 mM DTT; 25°C; KD from the fit of Eq 1 and 2

“Trx-Vn-ExoY (Vn-ExoY fused to Thioredoxin) (domain or fragment)” showed a Kd [1] of 11.7 µM and a stoichiometry N [1] of 1.
For “Vn-ExoY^3412-3873 (wild type) (domain or fragment)”, the Kd [2] was 12 to 14 µM.
Work on “Vn-ExoY^DM (Vn-ExoY^412-873 K528M/K535I, inactive double mutant) (domain or fragment)” yielded a Kd [3] of 21 µM and a stoichiometry N [3] of 1.
